Reference: the nanobody polyreactivity screen of Harvey et al. (2022)

Assay: yeast display, Sf9 membrane polyspecificity reagent, FACS + sequencing; frameworks hold sequencing errors
Method in brief: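 Synthetic nanobody libraries on Saccharomyces cerevisiae BJ5465 were galactose-induced for 36–48 hours, stained 1 hour at 4 °C with 10% biotinylated, detergent-solubilized Sf9 membrane reagent and enriched on streptavidin microbeads. FACS then separated cells into low and high (top ~1%) gates by anti-HA (expression) and streptavidin (reagent binding) fluorescence. Genes were colony-PCR amplified, MiSeq 2 × 250 sequenced and CDR-length filtered. A clone's polyreactivity label is that of its gate of origin.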

QVQLVESGGGLVQAGGSLRLSCAASGLIFVAFAMGWYRQAPGKERELVAAISRSGGSTYYADSVKGRFTISRDNAKNTVYLQMNSLKPEDTAVYYCAKYYGARHVDDDYWGQGTQVTVSS
polyreactivity (PSR sort gate): high polyreactivity

QVQLVESGGGLVQAGGSLRLICAASGGTFQSNAMGWYRQAPGKERELVASITSRGSSTYYADSVKGRFTISRDNAKNTVYLLMNSLKPEDTAVYYCAKGRSWQIYYKGGIKGGYWGQGTQVTVSS
polyreactivity (PSR sort gate): low polyreactivity

QVQLVESGGGLVQAGGSLRLSCAASGFIIGLYAMGWYRQAPGKERELVAAISGSGGSTYYADSVKGRFTISRDNAKNTVYLQMNSLKPEDTAVYYCNGAHGVHTYVYRYCYWGQGTQVTVSS
polyreactivity (PSR sort gate): low polyreactivity

QVQLEESGGGLVQAGGSLRLSCAASGSTFESYAMGWYRQAPGKERELVATITRRSTRTYYADSVKGRFTISRDNAKNTVYLQMNSLKPEDTAVYYCAARVYTVRAIGMGYWGQGTQVTVSS
polyreactivity (PSR sort gate): high polyreactivity

QVQHVESGGGLVQAGGSLRLTCAASGRIYASNSKGWYRQETGKERELFATSRVGGGSTYYADSVKGRFTISRDNAKNTVYLQRNSLKQEDTAVYYWAASFRDDFPQRLDFWGQGTQVTVSS
polyreactivity (PSR sort gate): low polyreactivity

QVHLVESGGGLVQAGGSLRLSCAASGSTFRRYARAWYRQAPGKERELVAAITWRGGSTYYADSVKGRFTISRDNAKNTVYLQMNSLKPEDNAVYYCAADRYPYQYNYWGQGTLVTVSS
polyreactivity (PSR sort gate): high polyreactivity

QVQLVESGGGLVQAGGSLRLSCAASGSILSGYAMGWYRQAPGKETELVAAITSGGDTNYADSVKGRFTISRDNAKNTVYLQMNSLKPEDTAVYYCNRRGDFRIAYYDPMDYWGQGTQVTVSS
polyreactivity (PSR sort gate): low polyreactivity

QVQLVESGGGLVQAGGSLRLSCAASGRIFNRNAMGWYRQAPGKERELVASISSGGRTNYADSVKGRFTISRDNAKNTVYLLMNSLKPEDTAVYYCAAKSPRILLDYWGQGTQVTVSS
polyreactivity (PSR sort gate): low polyreactivity

QVQLVESGGGLVQAGGSLRLSCAASGSIFVPYARGWYRQAPGKERELVAAISNGDSTYYADSVKGRFTISRDNAKNTVYLQMNSLKPEDTAVYYCAADAVKASVSYIVPYAAYDYWGQGTQVTVSS
polyreactivity (PSR sort gate): low polyreactivity

QVQLVESGGGLVQAGGSLRLICAASGRIFVRNARGLYRQAPGTERELVASISQNGGRTYYADSVKGRFTISRDNAKNTVYLQMNSLKPEDTAVYYCARGRGGSRPGLDYWGQGTQVTVSS
polyreactivity (PSR sort gate): high polyreactivity

QVQLVESGGGLLQAGGSLRLSSAASGRIFYGNTMGWYRQAPGKERELVAAITWRGGSTYYADSVKGRFTISRDNAKNTVYLQMNSLKPEDTAVYYCAAVSYRGRGYWGQGTQVTVSS
polyreactivity (PSR sort gate): high polyreactivity

QVQLVESGGGLVQAGGSLRLSCAASGFIFSKNVMGWYRQAPGKERELVARITRSGGTTYYADSVKGRFTISRDNAKNTVYLQMNSLKPEDTAVYYCAARRYGSTSISWYDYWGQGTQVTVSS
polyreactivity (PSR sort gate): high polyreactivity

QGQLVASGGGLVQAGGSLRLSSAASGSIFWLSTMGWSRQGPGKEREWVAAITGSGSATYYADSVKGRFTISRDYAKNTVYLQMTTLKPEDTADYYCAAYWSSARRRYDYWGQGSQVTVSS
polyreactivity (PSR sort gate): high polyreactivity

QVLLVESGGGLVQAGGSLRLSCAASGAIFRGYVMGWYSQAPGKERELVAAISYSGGATYYADSVKGRFTLSRDNAKNTVYVQMNSLKPEDTAVYYCAAYRYRYPYRLYDYWGQGTQGTVSS
polyreactivity (PSR sort gate): high polyreactivity

QVQLVESGGGLVQAGGSLRLSCAASGSTFDGNAMGWYRQAPGKERELDAAISDGDSTTYADSVKGRFTISRDNAKNTVYLQMNSLKPEDTAVYYCNADVARSKSQASAYDYWGQVTQVTVSS
polyreactivity (PSR sort gate): low polyreactivity

QVQLVESGGGLVQAGGSLRLRCAASGRIFGRNAMGWYRQAPGKERELVAAISGGGSTNYADSVKGRFTISRDNAKNTVYLQMKSLKPADTAVYYCAVKQGFYSRALKLYYWGQGTQVTVSS
polyreactivity (PSR sort gate): high polyreactivity

QVQLVESGGGLVQAGGSLRLSCAASGITFRLYAMGWYRQAPGKEREFVAAISRRGGSTYYADSVKGRFTISRDNAKNTVYLQMNSLKPEDTAVYYCARYGLVYALGYWGQGTQVTVSS
polyreactivity (PSR sort gate): high polyreactivity
